US20250027068A1

B1: VRT-2 (Fc fusion)
chain: VTSVWTKGVTPPAKFTQGEDVFHAPYVANQGWYDITKTFNGKDDLLCGAATAGNMLHWWFDQNKEKIEAYLKKHPDKQKIMFGDQELLDVRKVINTKGDQTNSELFNYFRDKAFPGLSARRIGVMPDLVLDMFINGYYLNVYKTQTTDVNRTYQEKDRRGGIFDAVFTRGDQSKLLTSRHDFKEKNLKEISDLIKKELTEGKALGLSHTYANVRINHVINLWGADFDSNGNLKAIYVTDSDSNASIGMKKYFVGVNSAGKVAISAKEIKEDNIGAQVLGLFTLSTGQDSWNQTNDKTHTCPPCPAPEAAGAPSVFLFPPKPKDTLMISRTPEVTCVVVDVSHEDPEVKFNWYVDGVEVHNAKTKPREEQQNSTYRVVSVLTVLHQDWLNGKEYKCKVSNKALKAPIEKTISKAKGQPREPQVYTLPPSRDELTKNQVSLTCLVKGFYPSDIAVEWESNGQPENNYKTTPPVLDSDGSFFLYSKLTVDKSRWQQGNVFSCSVMHEALHNHYTQKSLSLSPG
B2: VRT-5 (Fc fusion)
chain: VTSVWTKGVTPPANFTQGEDVFHAPYKANQGWYDITKTFNGKDDLLCGAATAGNMLHWWFDQNKDQIEAYLKEHPEKQKINFNGEQMFDVKEAIDTKDDQTNSKLFEYFKEKAFPYLSTKHLGVFPDHVLDMFINGYRLSLTNHGPTPVKEGSKDPRGGIFDAVFTRGDQSKLLTSRHDFKEKTLKEISDLIKQELTEGKALALSHTYANVRINHVINLWGADFDSNGNLEAIYVTDSDSNASIGMKKYFVGVNSAGKVAISAKEIEDDNIGAQVLGLFTLSTGQDIWNQTNDKTHTCPPCPAPEAAGAPSVFLFPPKPKDTLMISRTPEVTCVVVDVSHEDPEVKFNWYVDGVEVHNAKTKPREEQQNSTYRVVSVLTVLHQDWLNGKEYKCKVSNKALKAPIEKTISKAKGQPREPQVYTLPPSRDELTKNQVSLTCLVKGFYPSDIAVEWESNGQPENNYKTTPPVLDSDGSFFLYSKLTVDKSRWQQGNVFSCSVMHEALHNHYTQKSLSLSPG
B3: VRT-4 (Fc fusion)
chain: SQTEDSESLQRLRDIEDFQAEKKMQNVVYTKWLDGVDVKDHDFRKIVDGNIAYYATPLLNGRGFYDINKDFNRDSDKCAAAVAANMFHYWLDINRDNVDRFLRQNPEKHGIIELPDGQLKLSDFLNTYESDHGYRDKSKLFDFISNNFNGPVWTDKLLDNYINGYAYNYKYGRTIEDPTKNTSKINFFKEVFNEKILTNNHSIRNQNEFSVLLSEALYTGKAIGLSYGPAGLRHSLGHIISVWGADLDADGNVVAIYVTDSDDKKLTIGDERVGLKRYKISTDDENRLRLTAYEETHNTGGQIRGLWTLDTGKYAWADYFDKTEQTGTDQAEQDKTHTCPPCPAPEAAGAPSVFLFPPKPKDTLMISRTPEVTCVVVDVSHEDPEVKFNWYVDGVEVHNAKTKPREEQQNSTYRVVSVLTVLHQDWLNGKEYKCKVSNKALKAPIEKTISKAKGQPREPQVYTLPPSRDELTKNQVSLTCLVKGFYPSDIAVEWESNGQPENNYKTTPPVLDSDGSFFLYSKLTVDKSRWQQGNVFSCSVMHEALHNHYTQKSLSLSPG
B4: VRT-3 (Fc fusion)
chain: QITSVWTKGVTPLTPEQFRYNNEDVIHAPYLAHQGWYDITKAFDGKDNLLCGAATAGNMLHWWFDQNKTEIEAYLSKHPEKQKIIFNNQELFDLKAAIDTKDSQTNSQLFNYFRDKAFPNLSARQLGVMPDLVLDMFINGYYLNVFKTQSTDVNRPYQDKDKRGGIFDAVFTRGDQTTLLTARHDLKNKGLNDISTIIKQELTEGRALALSHTYANVSISHVINLWGADFNAEGNLEAIYVTDSDANASIGMKKYFVGINAHGHVAISAKKIEGENIGAQVLGLFTLSSGKDIWQKLSDKTHTCPPCPAPEAAGAPSVFLFPPKPKDTLMISRTPEVTCVVVDVSHEDPEVKFNWYVDGVEVHNAKTKPREEQQNSTYRVVSVLTVLHQDWLNGKEYKCKVSNKALKAPIEKTISKAKGQPREPQVYTLPPSRDELTKNQVSLTCLVKGFYPSDIAVEWESNGQPENNYKTTPPVLDSDGSFFLYSKLTVDKSRWQQGNVFSCSVMHEALHNHYTQKSLSLSPG
B5: VRT-11 (Fc fusion)
chain: QITSVWTKGVTPPTPEQFRYNNEDVIHAPYLANQGWYDITKTFNGKDNLLCGAATAGNMLHWWFDQNKTEIEAYLSKHPEKQKIIFNNQELFDLKAAIDTKDSQTNSQLFNYFRDKAFPNLSARQLGVMPDLVLDMFINGYYLNVFKTQSTDVNRPYQDKDKRGGIFDAVFTRGDQTTLLTARHDLKNKTLNDISTLIKQELTEGKALALSHTYANVSISHVINLWGADFNAEGNLEAIYVTDSDANASIGMKKYFVGVNAHGKVAISAKKIEGENIGAQVLGLFTLSSGKDIWQKLSDKTHTCPPCPAPEAAGAPSVFLFPPKPKDTLMISRTPEVTCVVVDVSHEDPEVKFNWYVDGVEVHNAKTKPREEQQNSTYRVVSVLTVLHQDWLNGKEYKCKVSNKALKAPIEKTISKAKGQPREPQVYTLPPSRDELTKNQVSLTCLVKGFYPSDIAVEWESNGQPENNYKTTPPVLDSDGSFFLYSKLTVDKSRWQQGNVFSCSVMHEALHNHYTQKSLSLSPG
B6: VRT-8 (Fc fusion)
chain: VTSVWTKGVTPPADFTQGEDVFHAPYVANQGWYDITKTFNGKDDLLCGAATAGNMLHWWFDQNKEYIEAYLKKHPEKQKIMFGDQELLDVRKAINTKGSQKNSELFNYFRDKAFPNLSARRLGVMPDLVLDMFINGYYLNVTKTQTTDVNRTYQEKDKRGGIFDAVFTRGDQSKLLTSRHDFKEKGLKEISDLIKQELTEGKALGLSHTYANVRINHVINLWGADFDSDGNLKAIYVTDSDSNASIGMKKYFVGVNSAGKVAISAKEIKEDNIGAQVLGLFTLSTGQDIWNQTNDKTHTCPPCPAPEAAGAPSVFLFPPKPKDTLMISRTPEVTCVVVDVSHEDPEVKFNWYVDGVEVHNAKTKPREEQQNSTYRVVSVLTVLHQDWLNGKEYKCKVSNKALKAPIEKTISKAKGQPREPQVYTLPPSRDELTKNQVSLTCLVKGFYPSDIAVEWESNGQPENNYKTTPPVLDSDGSFFLYSKLTVDKSRWQQGNVFSCSVMHEALHNHYTQKSLSLSPG
B7: VRT-10 (Fc fusion)
chain: TITSVWTKGVTPPTPEDFRYNNEDVLHAPYVANQGWYDITKTFDGKDNLLCGAATAGNMLHWWFDQNKEEIERYLKKHPEKQKIIFNNQELFDVKAAIDTKDSQTNSKLFNYFRDKAFPNLSARQLGVMPDLVLDMFINGYYLNLGKTQSTDVNRPYQDKDKRGGIFDAVFTRGDQTTLLTARHDLKNKGLNEISDLIKQELTEGKALALSHTYANVRINHVINLWGADFDAEGNLIAIYVTDSDANASIGMKKYFVGVNANGKVAISAKKIEGDNIGAQVLGLFTLSTGQDIWQKLSDKTHTCPPCPAPEAAGAPSVFLFPPKPKDTLMISRTPEVTCVVVDVSHEDPEVKFNWYVDGVEVHNAKTKPREEQQNSTYRVVSVLTVLHQDWLNGKEYKCKVSNKALKAPIEKTISKAKGQPREPQVYTLPPSRDELTKNQVSLTCLVKGFYPSDIAVEWESNGQPENNYKTTPPVLDSDGSFFLYSKLTVDKSRWQQGNVFSCSVMHEALHNHYTQKSLSLSPG
B8: VRT-1 (Fc fusion)
chain: VTSVWTKGVTPPANFTQGEDVFHAPYVANQGWYDITKTFNGKDDLLCGAATAGNMLHWWFDQNKDQIKRYLEEHPEKQKINFNGEQMFDVKEAIDTKNHQLDSKLFEYFKEKAFPYLSTKHLGVFPDHVIDMFINGYRLSLTNHGPTPVKEGSKDPRGGIFDAVFTRGDQSKLLTSRHDFKEKNLKEISDLIKKELTEGKALGLSHTYANVRINHVINLWGADFDSNGNLKAIYVTDSDSNASIGMKKYFVGVNSAGKVAISAKEIKEDNIGAQVLGLFTLSTGQDSWNQTNDKTHTCPPCPAPEAAGAPSVFLFPPKPKDTLMISRTPEVTCVVVDVSHEDPEVKFNWYVDGVEVHNAKTKPREEQQNSTYRVVSVLTVLHQDWLNGKEYKCKVSNKALKAPIEKTISKAKGQPREPQVYTLPPSRDELTKNQVSLTCLVKGFYPSDIAVEWESNGQPENNYKTTPPVLDSDGSFFLYSKLTVDKSRWQQGNVFSCSVMHEALHNHYTQKSLSLSPG
B9: VRT-6 (Fc fusion)
chain: VTSVWTKGVTPPANFTQGEDVFHAPYVANQGWYDITKTFNGKDDLLCGAATAGNMLHWWFDQNKDQIERYLKEHPEKQKINFNGEQMFDVKEAIDTKDSQTDSKLFEYFKEKAFPYLSTKHLGVFPDHVLDMFINGYRLSLTNHGPTPVKEGSKDPRGGIFDAVFTRGDQSKLLTSRHDFKEKTLKEISDLIKQELTEGKALGLSHTYANVRINHVINLWGADFDSEGNLKAIYVTDSDSNASIGMKKYFVGVNSAGKVAISAKEIKEDNIGAQVLGLFTLSTGQDIWNQTNDKTHTCPPCPAPEAAGAPSVFLFPPKPKDTLMISRTPEVTCVVVDVSHEDPEVKFNWYVDGVEVHNAKTKPREEQQNSTYRVVSVLTVLHQDWLNGKEYKCKVSNKALKAPIEKTISKAKGQPREPQVYTLPPSRDELTKNQVSLTCLVKGFYPSDIAVEWESNGQPENNYKTTPPVLDSDGSFFLYSKLTVDKSRWQQGNVFSCSVMHEALHNHYTQKSLSLSPG
B10: VRT-7 (Fc fusion)
chain: VTSVWTKGVTPPTNFTYGEDVLHAPYVANQGWYDITKTFNGKDDLLCGAATAGNMLHWWFDQNKEQIENYLKKHPEKQKINFNGEQMFDVKEAIDTKDSQLDSKLFEYFKEKAFPYLSTKHLGVFPDHVIDMFINGYRLSLTNHGPTPVKRGSKDPRGGIFDAVFTRGDQSKLLTNRHDFKEKTLKEISDLIKQELTEGKALGISHTYANVRINHVINLWGADFDAEGNLEAIYVTDSDSNASIGMKKYFVGVNSNGKVAISAKEIEEDNIGAQVLGLFTLSTGQDIWNQTNDKTHTCPPCPAPEAAGAPSVFLFPPKPKDTLMISRTPEVTCVVVDVSHEDPEVKFNWYVDGVEVHNAKTKPREEQQNSTYRVVSVLTVLHQDWLNGKEYKCKVSNKALKAPIEKTISKAKGQPREPQVYTLPPSRDELTKNQVSLTCLVKGFYPSDIAVEWESNGQPENNYKTTPPVLDSDGSFFLYSKLTVDKSRWQQGNVFSCSVMHEALHNHYTQKSLSLSPG

Each binder was assayed against pooled human IgG (human) (assay: cell-based or functional assay).

Binder	Enzyme Activity Endpoint Assay: Fab′2 [ng/µL]	Enzyme Activity Endpoint Assay: Fc [ng/µL]	Enzyme Activity Endpoint Assay: IgG [ng/µL]	Enzyme Activity Endpoint Assay: scIgG [ng/µL]
B1	97	238	247	100
B2	137	294	89	151
B3	0	29	990	24
B4	0	99	808	50
B5	0	90	829	38
B6	0	126	652	125
B7	56	266	71	169
B8	175	334	197	137
B9	132	304	78	172
B10	61	258	178	249
